Experimental data reported in patent US20230263900A1, “DENDRIMER-DRUG CONJUGATE” (priority 2020, published 2023).

Test: Pharmacokinetic studies of RHa-5 and RHa-15, single IV or SC administration, compared with RDV
Assay type: in vivo, animals (mammals)
Settings: for C0, plasma GS-441524 / C0, plasma Remdesivir / F AUC(0-inf), plasma GS-441524 / F AUC(0-inf), plasma Remdesivir / F AUC(0-last), plasma GS-441524 / F AUC(0-last), plasma Remdesivir / Clast, plasma GS-441524 / Clast, plasma Remdesivir / t1/2last, plasma GS-441524 / t1/2last, plasma Remdesivir / tlast, plasma GS-441524 / tlast, plasma Remdesivir: 6.17 mg/kg Remdesivir equivalent; for F AUC(0-inf), plasma GS-441524 / F AUC(0-inf), plasma Remdesivir / F AUC(0-last), plasma GS-441524 / F AUC(0-last), plasma Remdesivir: relative to RDV IV
Procedure: Studies were undertaken to investigate the pharmacokinetic (PK) profile of two Remdesivir dendrimer conjugates following single intravenous (IV) or subcutaneous (SC) administration, and to compare them with that of Remdesivir (RDV).
The study consisted of two phases (PK Phase 1 and PK Phase 2) in a total of 6 animals (age 36-48 months) each part separated by a washout period: • PK Phase 1: Four animals (mammals) were studied. One male and one female were administered RHa-5 (BHALys [Lys]2[Lys]2[Lys]8[Lys]16[Lys]32[(α-NH-6N-TDA-Remdesivir)32(ε-NH-COPEG2000)32] 20% Remdesivir loading w/w) (test item) intravenously; and one male and one female were administered RHa-5 subcutaneously. Blood samples were taken over a period of 7 days. A minimum washout period of 14 days took place between the last blood sampling point of the PK Phase 1 and the start of PK Phase 2. • PK Phase 2: Six animals (mammals) were studied. One male and one female were administered RHa-15 (BHALys[Lys]2[Lys]4[Lys]8[Lys]16[Lys]32[(α-NH-3′ O-TDA-Remdesivir)32(ε-NH-COPEG2000)32] 18.63% Remdesivir loading w/w) (test item) intravenously; one male and one female were administered RHa-15 subcutaneously; and one male and one female were administered RDV (reference item). Blood samples were taken over a period of 7 days.
Formulation procedure: Test items RHa-5 and RHa-15 were reconstituted in Required volume of Water for injection (WFI), until a complete solution was obtained. The required volume of WFI was slowly added to RDV formulation (a lyophilate of 3.2% w/w RDV, 96.8% and sodium sulfobutylether-β-cyclodextrin adjusted to pH 3.5 with HCl) and shaken vigorously for 30 seconds. The solution was left for 20 minutes to ensure complete dissolution.
Administration: The clinical Remdesivir loading dose in humans is 200 mg. […] Allometric conversion of the dose from humans to small mammals results in an equivalent test dose of 6.17 mg/kg Remdesivir. Test item was administered as follows:
PK Phase 1: Two animal groups (A and B) of one male and one female each were administered test item RHa-5 at a Remdesivir equivalent dose of 6.17 mg/kg. Group A were administered the test item as a slow (30 seconds) intravenous bolus; and Group B were administered the test item over 30 seconds using the subcutaneous (SC) route into the back of the animal.
PK Phase 2: Three animal groups (C, D and E) of one male and one female each were included in this study phase. Groups C and D were administered test item RHa-15 at a Remdesivir equivalent dose of 6.17 mg/kg using the IV and SC routes, respectively. Group E were administered 6.17 mg/kg of RDV intravenously. IV administrations were done as a slow (30 seconds) bolus. SC administrations were done over 30 seconds.
Sampling schedule: Blood samples for PK analysis were collected as follows: • Day 1: pre-dose and at 15 min, 30 min, 1 h, 2 h, 4 h, 6 h, and 12 h after administration. • Days 2 to 8: 24, 48, 72, and 168 h after administration.
A blood volume of 2 mL was collected at each time point from the jugular vein with a 20-21G needle into a lithium heparin tube, and transferred into a tube containing 200 μL 0.15 M citric acid. Immediately following blood collection, the blood samples were mixed gently and kept on crushed ice until centrifugation at 1500 G for 10 min at 4° C. within 30 minutes of collection. Each plasma sample was stored frozen (˜80±10° C.).
The quantification range was 0.6 to 14400 ng/mL for Remdesivir and 0.6 to 14400 ng/mL for G441524.
Non-compartmental pharmacokinetic analysis was adopted to obtain the pharmacokinetic parameters from the blood concentration profiles.
The maximum concentration, Cmax, and time of maximum concentration, Tmax, were determined as the maximum measured concentration and its associated time. The area under the plasma concentration curve from 0 hours to the time of the last measurable concentration, AUC0-last, was calculated using linear trapezoidal estimation. […]

Substance: BHALys[Lys]2[Lys]4[Lys]8[Lys]16[Lys]32[(α-NH-3′O-TDA-Remdesivir)32(ε-NH-COPEG2000)32] [RHa-15]
- C0, plasma GS-441524 (IV, female (4F)): 1 ng/mL
- C0, plasma Remdesivir (IV, female (4F)): 691 ng/mL
- F AUC(0-inf), plasma GS-441524 (IV, female (4F)): 0.8 x-fold
- F AUC(0-inf), plasma Remdesivir (IV, female (4F)): 14.8 x-fold
- F AUC(0-last), plasma GS-441524 (IV, female (4F)): 0.7 x-fold
- F AUC(0-last), plasma Remdesivir (IV, female (4F)): 16.3 x-fold
- Clast, plasma GS-441524 (IV, female (4F; RDV 6F)): 10.5 ng/mL
- Clast, plasma Remdesivir (IV, female (4F; RDV 6F)): 1.8 ng/mL
- t1/2last, plasma GS-441524 (IV, female (4F; RDV 6F)): 19.0 h
- t1/2last, plasma Remdesivir (IV, female (4F; RDV 6F)): 10.1 h
- tlast, plasma GS-441524 (IV, female (4F; RDV 6F)): 72 h
- tlast, plasma Remdesivir (IV, female (4F; RDV 6F)): 72 h
- C0, plasma GS-441524 (IV, male (1M)): 1 ng/mL
- C0, plasma Remdesivir (IV, male (1M)): 664 ng/mL
- F AUC(0-inf), plasma GS-441524 (IV, male (1M)): 0.8 x-fold
- F AUC(0-inf), plasma Remdesivir (IV, male (1M)): 12.1 x-fold
- F AUC(0-last), plasma GS-441524 (IV, male (1M)): 0.7 x-fold
- F AUC(0-last), plasma Remdesivir (IV, male (1M)): 12.4 x-fold
- Clast, plasma GS-441524 (IV, male (1M; RDV 3M)): 10.9 ng/mL
- Clast, plasma Remdesivir (IV, male (1M; RDV 3M)): 1.8 ng/mL
- t1/2last, plasma GS-441524 (IV, male (1M; RDV 3M)): 21.5 h
- t1/2last, plasma Remdesivir (IV, male (1M; RDV 3M)): 10.0 h
- tlast, plasma GS-441524 (IV, male (1M; RDV 3M)): 72 h
- tlast, plasma Remdesivir (IV, male (1M; RDV 3M)): 72 h
- C0, plasma GS-441524 (IV, mean of male and female): 1 ng/mL
- C0, plasma Remdesivir (IV, mean of male and female): 677 ng/mL
- Clast, plasma GS-441524 (IV, mean of male and female): 11 ng/mL
- Clast, plasma Remdesivir (IV, mean of male and female): 2 ng/mL
- t1/2last, plasma GS-441524 (IV, mean of male and female): 20.3 h
- t1/2last, plasma Remdesivir (IV, mean of male and female): 10.0 h
- tlast, plasma GS-441524 (IV, mean of male and female): 72 h
- tlast, plasma Remdesivir (IV, mean of male and female): 2 h
- F AUC(0-inf), plasma GS-441524 (IV, mean): 0.8 x-fold
- F AUC(0-inf), plasma Remdesivir (IV, mean): 13.5 x-fold
- F AUC(0-last), plasma GS-441524 (IV, mean): 1 x-fold
- F AUC(0-last), plasma Remdesivir (IV, mean): 14 x-fold
- Clast, plasma GS-441524 (SC, female (5F)): 1 ng/mL
- Clast, plasma Remdesivir (SC, female (5F)): 2 ng/mL
- t1/2last, plasma GS-441524 (SC, female (5F)): 24.5 h
- t1/2last, plasma Remdesivir (SC, female (5F)): 31.5 h
- tlast, plasma GS-441524 (SC, female (5F)): 168 h
- tlast, plasma Remdesivir (SC, female (5F)): 168 h
- F AUC(0-inf), plasma GS-441524 (SC, female (5F)): 0.8 x-fold
- F AUC(0-inf), plasma Remdesivir (SC, female (5F)): 14.8 x-fold
- F AUC(0-last), plasma GS-441524 (SC, female (5F)): 0.8 x-fold
- F AUC(0-last), plasma Remdesivir (SC, female (5F)): 16.3 x-fold
- Clast, plasma GS-441524 (SC, male (2M)): 1 ng/mL
- Clast, plasma Remdesivir (SC, male (2M)): 2 ng/mL
- t1/2last, plasma GS-441524 (SC, male (2M)): 26.2 h
- t1/2last, plasma Remdesivir (SC, male (2M)): 41.3 h
- tlast, plasma GS-441524 (SC, male (2M)): 168 h
- tlast, plasma Remdesivir (SC, male (2M)): 168 h
- F AUC(0-inf), plasma GS-441524 (SC, male (2M)): 0.9 x-fold
- F AUC(0-inf), plasma Remdesivir (SC, male (2M)): 12.1 x-fold
- F AUC(0-last), plasma GS-441524 (SC, male (2M)): 0.9 x-fold
- F AUC(0-last), plasma Remdesivir (SC, male (2M)): 12.4 x-fold
- Clast, plasma GS-441524 (SC, mean): 1 ng/mL
- Clast, plasma Remdesivir (SC, mean): 2 ng/mL
- t1/2last, plasma GS-441524 (SC, mean): 25.3 h
- t1/2last, plasma Remdesivir (SC, mean): 36.4 h
- tlast, plasma GS-441524 (SC, mean): 168 h
- tlast, plasma Remdesivir (SC, mean): 168 h
- F AUC(0-inf), plasma GS-441524 (SC, mean): 0.8 x-fold
- F AUC(0-inf), plasma Remdesivir (SC, mean): 13.5 x-fold
- F AUC(0-last), plasma GS-441524 (SC, mean): 1 x-fold
- F AUC(0-last), plasma Remdesivir (SC, mean): 14 x-fold
- Plasma Remdesivir t1/2 and AUC compared to RDV delivered IV (delivered IV or SC): substantially extended plasma Remdesivir t1/2 and increased AUC
